In patent US8753698B2, “Anti-hypertensive functional food products” (Globus Egg Sciences B.V., priority 2004, dated 2014) one finds ACE inhibition data, which are given here for one molecule.

The target in the experiment is Angiotensin-I Converting Enzyme (ACE) (Homo sapiens, UniProt P12821). The experiment can be described thus: Determination of ACE inhibitory activity of hydrolysates in a microtiter plate (Hip-His-Leu substrate). It counts as biochemical. The note with it: no digestion simulation, in %. The procedure: ACE inhibitory activity can be measured in vitro using a spectrophotometry based assay. The assay is based on the liberation of hippuric acid from Hip-His-Leu substrate catalyzed by ACE.
Sequence of Angiotensin-I Converting Enzyme (ACE) (P12821 30-1306, species assumed): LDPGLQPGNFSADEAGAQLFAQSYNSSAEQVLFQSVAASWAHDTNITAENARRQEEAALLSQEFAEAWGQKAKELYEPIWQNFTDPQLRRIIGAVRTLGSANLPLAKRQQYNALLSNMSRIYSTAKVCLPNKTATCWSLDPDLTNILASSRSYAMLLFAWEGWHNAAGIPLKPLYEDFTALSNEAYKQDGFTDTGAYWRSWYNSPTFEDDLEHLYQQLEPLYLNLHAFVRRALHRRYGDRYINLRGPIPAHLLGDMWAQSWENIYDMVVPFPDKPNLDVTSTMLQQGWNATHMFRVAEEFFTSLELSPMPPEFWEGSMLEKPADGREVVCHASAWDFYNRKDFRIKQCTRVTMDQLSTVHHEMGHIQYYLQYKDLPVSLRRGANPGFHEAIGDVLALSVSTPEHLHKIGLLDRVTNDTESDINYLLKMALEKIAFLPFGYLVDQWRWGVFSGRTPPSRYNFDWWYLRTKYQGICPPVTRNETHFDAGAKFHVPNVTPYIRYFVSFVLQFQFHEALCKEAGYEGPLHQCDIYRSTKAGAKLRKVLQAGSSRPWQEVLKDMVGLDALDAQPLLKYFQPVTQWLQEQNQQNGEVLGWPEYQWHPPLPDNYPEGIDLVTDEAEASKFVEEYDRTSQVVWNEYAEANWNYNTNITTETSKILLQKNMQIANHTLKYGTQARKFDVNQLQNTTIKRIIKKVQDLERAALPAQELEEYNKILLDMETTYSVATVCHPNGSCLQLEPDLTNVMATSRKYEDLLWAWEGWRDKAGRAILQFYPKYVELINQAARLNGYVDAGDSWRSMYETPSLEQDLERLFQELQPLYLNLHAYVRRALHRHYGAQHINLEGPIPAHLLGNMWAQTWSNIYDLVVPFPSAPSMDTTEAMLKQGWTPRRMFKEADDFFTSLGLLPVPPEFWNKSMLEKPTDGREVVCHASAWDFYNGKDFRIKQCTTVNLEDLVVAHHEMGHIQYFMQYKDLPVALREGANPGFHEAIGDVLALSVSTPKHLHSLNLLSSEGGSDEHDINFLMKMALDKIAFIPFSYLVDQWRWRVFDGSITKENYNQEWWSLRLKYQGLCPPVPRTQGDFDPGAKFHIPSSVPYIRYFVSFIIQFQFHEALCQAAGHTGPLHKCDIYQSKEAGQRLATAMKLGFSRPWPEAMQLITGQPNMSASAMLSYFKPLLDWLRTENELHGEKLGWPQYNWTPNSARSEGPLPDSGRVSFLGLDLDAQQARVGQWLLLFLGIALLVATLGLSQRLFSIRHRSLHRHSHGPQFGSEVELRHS
Calculation of Ace Inhibition:
[formula] 2.4 Further (Optimized) Hydrolysis of Ovomucin with Alcalase Protocol for the DH Determination by TNBS Method Solutions: • 0.21 M Sodium phosphate buffer pH8.2 • 0.21 M NaH2PO4.H2O (25 ml solution) • 0.21 M Na2HPO4.2H2O (500 ml solution) • mix solutions to pH 8.2 • 0.05% TNBS • Dilute TNBS stock (5% solution) to 0.05% in MQ cover reagent tube with aluminium foil and store in dark place • 1% SDS solution • Leucine standard (stock 3 mM Leucine) • Dissolve Leucine in 1% SDS solution. Dilute the stock solution 20×, 10×, 4× en 2× with 1% SDS for analysis • Blank • Dilute non-hydrolysed sample in 1% SDS to a protein concentration of 0.5 mg/ml • Samples • Dilute hydrolysed protein in 1% SDS to a concentration of 0.5 mg/ml in duplo Analysis: • Pipet 15 μl sample (Leucine standard or sample) in microwell. Measure each dilution in twofold in plate (Costar, non-binding plate) • Add 45 μl 0.21 M sodium phosphate buffer pH 8.2 • Add 45 μl 0.05% TNBS. Cover plate with aluminium foil. Incubate plate for 60 minutes in a 50° C. stove. • After incubation add 90 μl 0.1 N HCl • Measure absorption at 340 nm (microplate reader) Calculation of degree of hydrolysis (DH): • Make calibration line of Leucine standard. This calibration line is used to convert absorption values of samples to NH2-equivalents.

B1: OT-UM: ovotransferrin, not pre-hydrolysed, nor in vitro digested (protein)
chain: APPKSVIRWCTISSPEEKKCNNLRDLTQQERISLTCVQKATYLDCIKAIANNEADAISLDGGQAFEAGLAPYKLKPIAAEVYEHTEGSTTSYYAVAVVKKGTEFTVNDLQGKTSCHTGLGRSAGWNIPIGTLLHRGAIEWEGIESGSVEQAVAKFFSASCVPGATIEQKLCRQCKGDPKTKCARNAPYSGYSGAFHCLKDGKGDVAFVKHTTVNENAPDQKDEYELLCLDGSRQPVDNYKTCNWARVAAHAVVARDDNKVEDIWSFLSKAQSDFGVDTKSDFHLFGPPGKKDPVLKDLLFKDSAIMLKRVPSLMDSQLYLGFEYYSAIQSMRKDQLTPSPRENRIQWCAVGKDEKSKCDRWSVVSNGDVECTVVDETKDCIIKIMKGEADAVALDGGLVYTAGVCGLVPVMAERYDDESQCSKTDERPASYFAVAVARKDSNVNWNNLKGKKSCHTAVGRTAGWVIPMGLIHNRTGTCNFDEYFSEGCAPGSPPNSRLCQLCQGSGGIPPEKCVASSHEKYFGYTGALRCLVEKGDVAFIQHSTVEENTGGKNKADWAKNLQMDDFELLCTDGRRANVMDYRECNLAEVPTHAVVVRPEKANKIRDLLERQEKRFGVNGSEKSKFMMFESQNKDLLFKDLTKCLFKVREGTTYKEFLGDKFYTVISSLKTCNPSDILQMCSFLEGK
Consider B1, for which the ACE inhibition reads like this: (conc. 0.019 mg/ml) 0.7; (conc. 0.056 mg/ml) −4.1; (conc. 0.167 mg/ml) 0.7; (conc. 0.500 mg/ml) −0.3.
